Data published in US11857601 (dated 2024).

Target: Human CTLA-4/CD152, His tag (Sino Biological, Cat: 11159-H08H) (human, UniProt P16410 36-162)
Experiment: BLI

Chain of Human CTLA-4/CD152, His tag (Sino Biological, Cat: 11159-H08H) (P16410 36-162): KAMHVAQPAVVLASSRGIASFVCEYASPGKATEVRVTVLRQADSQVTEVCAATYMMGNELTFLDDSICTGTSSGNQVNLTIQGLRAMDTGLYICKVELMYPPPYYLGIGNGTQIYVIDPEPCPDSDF

B1: GI101C1 (hCD80-Fc) (Fc fusion)
chain: VIHVTKEVKEVATLSCGHNVSVEELAQTRIYWQKEKKMVLTMMSGDMNIWPEYKNRTIFDITNNLSIVILALRPSDEGTYECVVLKYEKDAFKREHLAEVTLSVKADFPTPSISDFEIPTSNIRRIICSTSGGFPEPHLSWLENGEELNAINTTVSQDPETELYAVSSKLDFNMTTNHSFMCLIKYGHLRVNQTFNWNTTKQEHFPDNGSGGGGSGGGGSGGGGSAESKYGPPCPPCPAPEAAGGPSVFLFPPKPKDQLMISRTPEVTCVVVDVSQEDPEVQFNWYVDGVEVHNAKTKPREEQFNSTYRVVSVLTVLHQDWLNGKEYKCKVSNKGLPSSIEKTISKAKGQPREPQVYTLPPSQEEMTKNQVSLTCLVKGFYPSDIAVEWESNGQPENNYKTTPPVLDSDGSFFLYSRLTVDKSRWQEGNVFSCSVLHEALHNHYTQKSLSLSLG
  Kd: 3.2 nM
